# Molecular target: recombinant human MXRA8-Fc fusion protein (UniProt Q9BRK3)
# Conditions: 37 °C; n = 2; parent: est. 19; read off a plot
substance,measurement,value
"Ross River virus T48, CPER-recovered wild type, purified virus (E1/E2 envelope glycoproteins on the virion) E2:H64W",Kd,0.066 µM

# — article PMC8187723
